Experiment: label from the status in PepcDB records

Sequence	protein production
MRKTPSHTEKKMVYSIRSLKNGTGSVLIGASLVLLAMATPTISSDESTPTTNEPNNRNTTTLAQPLTDTAAGSGKNESDISSPGNANASLEKTEEKPAASPADPAPQTGQDRSSEPTTSTSPVTTETKAEEPIEDNYFRIHVKKLPEENKDAQGLWTWDDVEKPSENWPNGALSFKDAKKDDYGYYLDVKLKGEQAKKISFLINNTAGKNLTGDKSVEKLVPKMNEAWLDQDYKVFSYEPQPAGTVRVNYYRTDGNYDKKSLWYWGDVKNPSSAQWPDGTDFTATGKYGRYIDIPLNEAAREFGFLLLDESKQGDDVKIRKENYKFTDLKNHSQIFLKDDDESIYTNPYYVHDIRMTGAQHVGTSSIESSFSTLVGAKKEDILKHSNITNHLGNKVTITDVAIDEAGKKVTYSGDFSDTKHPYTVSYNSDQFTTKTSWRLKDETYSYDGKLGADLKEEGKQVDLTLWSPSADKVSVVVYDKNDPDKVVGTVALEKGERGTWKQTLDSTNKLGITDFTGYYYQYQIERQGKTVLALDPYAKSLAAWNSDDSKIDDAHKVAKAAFVDPAKLGPQDLTYGKIHNFKTREDAVIYEAHVRDFTSDPAIAKDLTKPFGTFEAFIEKLDYLKDLGVTHIQLLPVLSYYFVNELKNHERLSDYASSNSNYNWGYDPQNYFSLTGMYSSDPKNPEKRIAEFKNLINEIHKRGMGAILDVVYNHTAKVDLFEDLEPNYYHFMDADGTPRTSFGGGRLGTTHHMTKRLLIDSIKYLVDTYKVDGFRFDMMGDHDAASIEEAYKAARALNPNLIMLGEGWRTYAGDENMPTKAADQDWMKHTDTVAVFSDDIRNNLKSGYPNEGQPAFITGGKRDVNTIFKNLIAQPTNFEADSPGDVIQYIAAHDNLTLFDIIAQSIKKDPSKAENYAEIHRRLRLGNLMVLTAQGTPFIHSGQEYGRTKQFRDPAYKTPVAEDKVPNKSHLLRDKDGNPFDYPYFIHDSYDSSDAVNKFDWTKATDGKAYPENVKSRDYMKGLIALRQSTDAFRLKSLQDIKDRVHLITVPGQNGVEKEDVVIGYQITAPNGDIYAVFVNADEKAREFNLGTAFAHLRNAEVLADENQAGPVGIANPKGLEWTEKGLKLNALTATVLRVSQNGTSHESTAEEKPDSTPSKPEHQNEASHPAHQDPAPEARPDSTKPDAKVADAENKPSQATADSQAEQPAQEAQASSVKEAVRNESVENSSKENIPATPDKQAELPNTGIKNENKLLFAGISLLALLGLGFLLKNKKEN	failed
MKKGRGYVYKLEYHLIWATKYRHQVLVDEVADGLKDILRDIATQNGLELVALEVMPDYVHLLLGATPQHVIPDFVKALKGASARRMFSAFPHLKQPHWGGNLWNPSYCVLTVSEHTRAQIQQYIENQHAAE	not failed
MQDLNDIALFAAVVKHNGFSAAARDLNVPKSKLSKHVARLEEQLGVRLLERSTRKLRMTEVGRIFYEHAQGLLDGVAAAEAEIAAVRAEPTGVVRLACPIGFTPMLADILPAFHRRYPGVRLLITASNRRIDLIEERIDVALRARDQLDTDSQLIVRKFGEVRQRLAASPTLLARLGEITTDNLSQMPTLSMNEQHPNDVWRLVHATGGAIEIAHRPVVGCSDFLILERAAIEGMGIALLPDHICERAFRTGALVPVLPEWTSGNVMVHLVFPSRHGLLPATRALIDFLAENLIKALERCREVDPRPAASFEI	failed
MSFQEIPIIDLQEAFDPATRSKFLEEVRDAIINVGFLLLKNYESLGPTEEDLQSIKQQAIEFFALPAKEKLQCEMLNSPHFLGYTRLANEITASHTDWREQIDLATELPAPKEGEPLYKNIEGPNLWPNPEVIPKFRPTIERFIEKMTALSNVFKDLVAESIGVDPKALNRYFKENQQCKMKLIAYPDVSELDGTKSAALDDTPETNQGVEPHRDSDLITYIYQATEHQNSLQVQNFQGHWITVPNIPGHLVVNNGQTLQAITGGVAKATIHRVLVPEKGTGTRISIPFFQTIDLDSSKGVVDNLPQEVIDLKNERDKKIKDWGVDTGFQFEPDVSKEPIGHAVFRNRIKSHQDVAKKWYPDVLKSVLQEYTH	not failed
MPGSALKYRDLRDFLAQLERQGELKRITAPVSTRLEMTEIADRVLRAGGPALLFENARHNDAPADMPVLANLFGTPRRVAWGMGADDVGALRETGELLASLREPEAPKGLRDALAKVSMLKAALWDMSPKTVRSAACQEIVWEGADVELSRLPIQTCWPGDVAPLLAWGLVITRGPNARRQNLGIYRQQPLGPNKLIMRWLSHRGGALDFRDHAQAHPGKPFPITVALGADPATILGAVTPVPDTLSEYQFAGLLRGSRTEVVKALGSDLSVPASAEIVLEGHLLPADDPRAVAAVVPEGANPPPATGYEMALEGPYGDHTGYYNEQDWFPVFTVDRITMRRNPIYHSTYTGKPPDEPAVLGVALNEVFVPLLRRQLPEIVDFYLPPEGCSYRLAVVSIRKQYAGHAKRVMFGLWSVLRQFMYTKFIVVVDEDIDPRDWTEVVWAMTTRMDPVRDTVLVENAPIDYLDFASPVSGLGGKMGLDATNKWPGETSREWGTPIHMDEAVKRRVDAMWDTLGLLEHHHHHH	failed
MFRVTGTLSAASSPAVAAASFSAALRLSITPTLAIASPPHLRWFSKFSRQFLGGRISSLRPRIPSPCPIRLSGFPALKMRASFSSGSSGSSASREILVQHLLVKNNDVELFAELQKKFLDGEEMSDLAAEYSICPSKKDGGILGWVKLGQMVPEFEEAAFKAELNQVVRCRTQFGLHLLQVLSEREPVKDIQVEELHSKMQDPVFMDEAQLIDVREPNEIEIASLPGFKVFPLRQFGTWAPDITSKLNPEKDTFVLCKVGGRSMQVANWLQSQGFKSVYNITGGIQAYSLKVDPSIPTY	failed
MVANLPALFSLGVFVGVILLIMSEKIHLTIAAFLGALILVFTHVITLKEGIDYISQSYATLALFFGVMVLVRSFEPTKIFEYLATQMVLLAKGSGKLLMLGVIAITTPICAVLPNATTVMLLAPLIPPLAQEIGVDFVPILILMVFVANSAGLLTLVGDPATFIVGDAINISFNDYLFKLSFMGVLAIVSIVVITPFLFRHIWRSRFTHLEDLPHPQINHPKVLMAGGVIITLVLIFFVIGESLPVPIPPASVALMGACLALLLASQSKIDTVHNILRDVDWSTLIFFMSIFVIIGSLEKTGVTASLAQLLAVVVGQNIAFGAIVLVFTVGLLSSVVPNIPLVVAMVPLLKQYVVNIGFAGPEILGANFDGQLPAEVLPLFYAMMFGATLGGNGTLVGASSNIVAAGISEQHGRPISFHRFLRYGLPVMAVQLVVAALFVAWLMFTQQG	failed
MSKLAQIVQKLKKQGIEAAVLSDPVSINYLTGFYSDPHERLMFLFLFADQEPLLFLPELDALRAKSILDISVTGYLDFENPLEKIKTLLPKTNYSKIALEFDNLNVTKFKGLETIFSGQFTNLTPLINRMR	not failed
MTKGISALSNIATLRSRELGPETFIPYVRHVDETTIALESRALMTMIALDGVSFETSDVRDLNGLHRSLNTLYRNIADERLALWTHVVRRRDNAYPEGRFANPFSDGLNARYRERMVNENLFRNDLYLTLVWHPGRDPAEKAAKLLSRLSKARRSDTELDGQALKHLRDHVADVAAGLQRFGPRQLTLHEHDGILFSEPSEVLHQIVGGRREPIPLTEGRISSAIYSDRVIFGRETIEIRHEADSRYAGMFGFKEYPATTRSGMLDAILTAPFELILTQSFAFTSKADARTIMGRKQNQMVSAGDKAASQIEELGEAMDDLESNRFVLGEHHLTLAVFAPSVKELTDHMAKARAYLTSGGAVVAREDLGLEAAWWAQLPGNFRYRARSGAITSRNFAALAPYHSYPAGKKDGNEWGPAVAMLKTASGSPFYFNFHHGDLGNSFVCGPSGTGKTVLLNFMLSQLEKHGPHMVFFDKDRGADLFVRAAGGTYLPLKNGVATGCAPLKALEFTAENKVFLTGWIAKLVRSGPGELSITELRDIALAVDGVADLPVERRSIGALRTFLNNTDPEGIAARLRRWEKGGPLGWVFDNEADDIGIGARFIGYDMTDFLDNEEIRTPLMAYLFYRIEQLIDGRRIIIVIDEFWKALQDEGFRDLAQNKLKTIRKQNGLMLFATQSPRDAIVSPIAHTIIEQCPTQIFLPNPRGDRADYVDGFKLTEREFELVSRELSVESRRFIVKQGHNSVVAELNLNGFDDELAILSGRTANVELADAIRLEIGEGREDWLAVFHQRRKTA	failed
HVETIKNTFLNPKSNKVLVVAHRGNWRSAPENSTAAIDSAIAMKVDIVEIDIQKTKDGQLILMHDNTLDRTTTGKGEIKNWTLADIKKLKLKDKDGKVTNYVVPTLEEALLTAKGKIMVNLDKAYDIFDDVYAILEKTETQNQVIMKGGQPIETVKREFGSYLDKVLYMPVIDLGNKEAEKIITDYLKELRPAAFEIIYSDPKNPLPPKIKQLLFKKSLIWYNTLWGSLAGNHDDNLALTDPEKSYGYLIEQLGARILQTDQPAYLLDYLRKKGWHN	not failed
LPAHSWLGSFQAAGFDLVGQAWLPEQPSATLFLLHGYYDHMGLYRHVIEWALKQGFAVISCDLPGHGLSSGERASITDFAVYQQVLEALFEQAHTLQLPHPWHLCGQSTGGAIAVDHLLHQGARSPVDGQVILLAPLVRPSSWRWSKFSYCVLRHFVNGIERRFSENTNDPAFLPFLEADPLQPRRLPTAWVGALIAWVKRIEAAPRSARRPLIVQGEADGTVDWPHNLEVLKAKFAEPQILMLPEARHHLANELPGIRQRYFDFIDQRLG	failed
MADLSFIEDTVAFPEKEEDEEEEEEGVEWGYEEGVEWGLVFPDANGEYQSPINLNSREARYDPSLLDVRLSPNYVVCRDCEVTNDGHTIQVILKSKSVLSGGPLPQGHEFELYEVRFHWGRENQRGSEHTVNFKAFPMELHLIHWNSTLFGSIDEAVGKPHGIAIIALFVQIGKEHVGLKAVTEILQDIQYKGKSKTIPCFNPNTLLPDPLLRDYWVYEGSLTIPPCSEGVTWILFRYPLTISQLQIEEFRRLRTHVKGAELVEGCDGILGDNFRPTQPLSDRVIRAAFQLEHHHHHH	not failed
AALAAKVRTLGPSMTRSMQRVAEAVAGDPAGCAALTVTGLAELTGTSEATVVRTARLLGYPGYRDLRLALAGLAAQQQSGRAPAITTDIAVDDPIADVVAKLAYDEQQTL	failed
LGNEDFNSVIQQMAQGRQIEYIDIERPSTGGLGFSVVALRSQNLGKVDIFVKDVQPGSVADRDQRLKENDQILAINHTPLDQNISHQQAIALLQQTTGSLRLIVAREPVHTKSST	not failed

From a protein production outcome set (Wang et al. 2014)
